Data published in PMC6834283, “Duplicate divergence of two bacterial small heat shock proteins reduces the demand for Hsp70 in refolding of substrates” (PLoS Genetics, 2019).

B1: IbpA from Escherichia coli (natural protein, E. coli, UniProt P0C054 1-137, looked up)
chain: MRNFDLSPLYRSAIGFDRLFNHLENNQSQSNGGYPPYNVELVDENHYRIAIAVAGFAESELEITAQDNLLVVKGAHADEQKERTYLYQGIAERNFERKFQLAENIHVRGANLVNGLLYIDLERVIPEAKKPRRIEIN
notes: small heat shock protein IbpA, E. coli; Forms large undefined oligomers; also called IbpAEc; source: purified as described previously [23]
B2: IbpABEc (IbpAEc and IbpBEc used together, two-sHsp system of E. coli) (complex)
chain 1: B1 chain
chain 2: MRNFDLSPLMRQWIGFDKLANALQNAGESQSFPPYNIEKSDDNHYRITLALAGFRQEDLEIQLEGTRLSVKGTPEQPKEEKKWLHQGLMNQPFSLSFTLAENMEVSGATFVNGLLHIDLIRNEPEPIAAQRIAISERPALNS
notes: small heat shock protein IbpA, E. coli; as m1; small heat shock protein IbpB, E. coli; as m2; source: the two purified proteins (as described previously [23]) mixed at about 1:2

Columns and labels:
[1] = target: T1, firefly luciferase, thermally denatured (firefly, UniProt P08659 1-550 = luciferase); assay: co-sedimentation; sHsp-substrate assemblies isolated on a glycerol gradient, incubated 45 min at room temperature with buffer or with limiting or saturating DnaK/DnaJ/GrpE, then a second 10-60% glycerol gradient; pooled top, middle and bottom fractions by Western blot with IbpA antibodies; conditions: both partners purified
T1 construct: firefly luciferase (Promega), used as the aggregating substrate; Denatured at 44°C for 10 min in the presence of the sHsps; The partner is the unfolded, aggregating protein, not the native enzyme; source: bought: Promega
T1 sequence (P08659 whole entry): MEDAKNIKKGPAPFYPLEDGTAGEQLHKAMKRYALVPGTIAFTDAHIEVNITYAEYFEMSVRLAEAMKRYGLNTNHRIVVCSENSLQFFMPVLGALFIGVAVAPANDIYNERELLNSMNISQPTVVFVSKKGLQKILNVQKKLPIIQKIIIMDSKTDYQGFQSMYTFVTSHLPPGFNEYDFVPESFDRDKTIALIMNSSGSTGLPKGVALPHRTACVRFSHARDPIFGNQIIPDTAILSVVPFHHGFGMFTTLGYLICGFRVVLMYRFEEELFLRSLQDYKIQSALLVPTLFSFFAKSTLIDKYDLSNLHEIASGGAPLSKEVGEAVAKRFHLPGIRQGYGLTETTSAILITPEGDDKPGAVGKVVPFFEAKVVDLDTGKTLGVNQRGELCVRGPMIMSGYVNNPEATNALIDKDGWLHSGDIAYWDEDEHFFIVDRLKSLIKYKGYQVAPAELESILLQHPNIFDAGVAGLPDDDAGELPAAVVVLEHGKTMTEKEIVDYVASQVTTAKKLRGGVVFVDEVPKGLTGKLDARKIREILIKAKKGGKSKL

[2] = target: T2, C-His-tagged luciferase, aggregated on the BLI sensor (firefly, UniProt P08659 1-550 = luciferase); assay: BLI; aggregated C-His-tagged luciferase immobilised on Ni-NTA sensors (BLItz); 5 μM sHsps (1.66 μM IbpAEc with 3.34 μM IbpBEc for IbpABEc) heat-activated at 44°C for 5 min; room temperature, buffer D (50 mM Tris-HCl pH 7.5, 150 mM KCl, 20 mM Mg acetate, 2 mM DTT); 10 min binding, 1 h dissociation in buffer; conditions: both partners purified
T2 construct: firefly luciferase with a C-terminal His tag, used only in the BLI experiments; An anchoring layer was immobilised in 6 M urea on Ni-NTA sensors; A top aggregate layer was then formed at 44°C for 10 min; also called aggregated luciferase; immobilized luciferase aggregates; source: purified (Ni-NTA agarose); not shown: His tag, C-terminal, kept
T2 sequence (P08659 whole entry): as above

Binder	binding result [1]	binding result [2]
B1	binds	binds
B2	binds	binds
